According to doi:10.1101/492215:

Biological target: HTT^1-3144 Q23, C-terminally FLAG-tagged (human)
Experiment: SEC-MALS

- stoichiometry N: 2
Substance: HTT^1-3144 Q23, C-terminally FLAG-tagged (natural protein)
